Laboratory results published in US20150368625A1 (MIT, published 2015).
Substitutions are numbered along the chain they refer to.

B1: T7 sigma-like fragment with 601 split + SZ18 (other)
chain: MSIAATLENDLARLENENARLEKDIANLERDLAKLEREEAYFGGSGGKNTGEISEKVKLGTKALAGQWLAYGVTRSVTKSSVMTLAYGSKEFGFRQQVLEDTIQPAIDSGKGLMFTQPNQAAGYMAKLIWESVSVTVVAAVEAMNWLKSAAKLLAAEVKDKKTGEILRKRCAVHWVTPDGFPVWQEYKKPIQTRLNLMFLGQFRLQPTINTNKDSEIDAHKQESGIAPNFVHSQDGSHLRKTVVWAHEKYGIESFALIHDSFGTIPADAANLFKAVRETMVDTYESCDVLADFYDQFADQLHESQLDKMPALPAKGNLNLRDILESDFAFA
notes: also called T7 fragment; variable fragment
B2: K1FR sigma-like fragment with 601 split + SZ18 (other)
chain: B1 chain with S80R, M198R, Q202S, R204N, I209V
B3: T3 sigma-like fragment with 601 split + SZ18 (other)
chain: B1 chain with S80R, T193K, N196D, L197M, M198I
notes: also called T3 fragment; T3 sigma factor

biological target: T1, Core fragment with 601 split + SZ17 (Bacteriophage T7, UniProt P00573 1-601); assay: reporter assay in cells: core at a constant level, sigma-like fragment induced, promoter->sfgfp read by flow cytometry
T1 construct: Expressed constitutively in cells from a single copy plasmid, not purified; also called conserved fragment; 1-601 fragment
Description: Cells containing the three test plasmids (constitutive expression of core, promoter->sfgfp reporter, and pTac->sigma-like fragment) were inoculated into 0.5 mL LB+antibiotics and grown to saturation overnight. The overnight cultures were diluted 1:200 into 0.15 mL LB+antibiotics+100 μM IPTG and grown at 37° C., 1000 rpm for 6 hours. The fluorescence of the cells was quantified using a flow cytometer (FIG. 8). The assay was performed on three separate days, with three technical replicates per day. Data shown is the average value over all three days, with error bars representing the standard deviation between the mean values on each day.

T1 sequence (P00573 1-601, tags or fused parts left off): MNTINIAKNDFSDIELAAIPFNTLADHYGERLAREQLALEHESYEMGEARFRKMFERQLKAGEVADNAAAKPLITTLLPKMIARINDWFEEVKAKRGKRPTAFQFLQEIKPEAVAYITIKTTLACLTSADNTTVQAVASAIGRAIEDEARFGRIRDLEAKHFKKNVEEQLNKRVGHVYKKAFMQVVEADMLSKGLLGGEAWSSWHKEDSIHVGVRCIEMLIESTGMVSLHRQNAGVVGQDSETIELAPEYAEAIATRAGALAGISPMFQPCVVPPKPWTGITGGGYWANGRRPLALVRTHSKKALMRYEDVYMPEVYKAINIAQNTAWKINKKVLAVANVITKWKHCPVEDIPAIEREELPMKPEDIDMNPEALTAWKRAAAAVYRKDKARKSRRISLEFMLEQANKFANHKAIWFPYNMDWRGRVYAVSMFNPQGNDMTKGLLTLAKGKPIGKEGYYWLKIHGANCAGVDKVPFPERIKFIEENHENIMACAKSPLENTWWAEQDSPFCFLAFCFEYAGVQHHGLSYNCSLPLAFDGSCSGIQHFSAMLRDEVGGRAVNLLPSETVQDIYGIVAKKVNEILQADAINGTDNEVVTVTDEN

| Binder | binding result |
| --- | --- |
| B1 | binds |
| B2 | binds |
| B3 | binds |
